The record followed here is patent US8512964.

Chain of apoER2 (Q14114 whole entry): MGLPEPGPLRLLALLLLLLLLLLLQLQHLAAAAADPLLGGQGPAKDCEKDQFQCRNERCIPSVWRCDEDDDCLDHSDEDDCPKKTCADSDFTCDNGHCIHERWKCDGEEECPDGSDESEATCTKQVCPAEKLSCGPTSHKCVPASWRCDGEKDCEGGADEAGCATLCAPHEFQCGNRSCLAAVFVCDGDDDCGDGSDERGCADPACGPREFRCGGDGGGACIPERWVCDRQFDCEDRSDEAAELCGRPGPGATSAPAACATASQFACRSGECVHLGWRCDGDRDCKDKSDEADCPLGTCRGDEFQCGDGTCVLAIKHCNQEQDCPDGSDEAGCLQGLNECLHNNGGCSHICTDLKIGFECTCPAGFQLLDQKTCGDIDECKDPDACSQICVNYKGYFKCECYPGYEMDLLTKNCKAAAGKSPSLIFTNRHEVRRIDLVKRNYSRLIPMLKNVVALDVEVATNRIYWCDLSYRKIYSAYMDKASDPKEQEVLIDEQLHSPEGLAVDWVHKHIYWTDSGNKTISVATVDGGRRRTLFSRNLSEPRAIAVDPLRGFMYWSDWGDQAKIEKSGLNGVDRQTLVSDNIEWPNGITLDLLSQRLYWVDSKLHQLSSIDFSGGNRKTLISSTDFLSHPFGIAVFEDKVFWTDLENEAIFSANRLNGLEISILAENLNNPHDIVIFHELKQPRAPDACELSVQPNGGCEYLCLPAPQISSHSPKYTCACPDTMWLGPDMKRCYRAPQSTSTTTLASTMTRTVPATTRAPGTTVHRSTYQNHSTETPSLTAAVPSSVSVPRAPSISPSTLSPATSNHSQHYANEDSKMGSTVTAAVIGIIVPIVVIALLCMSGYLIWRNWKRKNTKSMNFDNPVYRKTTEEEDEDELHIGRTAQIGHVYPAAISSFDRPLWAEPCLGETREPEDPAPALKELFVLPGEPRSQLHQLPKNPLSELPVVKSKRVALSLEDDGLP

B1: myosin light chain interacting protein (Mylip) (protein)
chain: MLCYVTRPDAVLMEVEVEAKANGEDCLNQVCRRLGIIEVDYFGLQFTGSKGESLWLNLRNRISQQMDGLAPYRLKLRVKFFVEPHLILQEQTRHIFFLHIKEALLAGHLLCSPEQAVELSALLAQTKFGDYNQNTAKYNYEELCAKELSSATLNSIVAKHKELEGTSQASAEYQVLQIVSAMENYGIEWHSVRDSEGQKLLIGVGPEGISICKDDFSPINRIAYPVVQMATQSGKNVYLTVTKESGNSIVLLFKMISTRAASGLYRAITETHAFYRCDTVTSAVMMQYSRDLKGHLASLFLNENINLGKKYVFDIKRTSKEVYDHARRALYNAGVVDLVSRNNQSPSHSPLKSSESSMNCSSCEGLSCQQTRVLQEKLRKLKEAMLCMVCCEEEINSTFCPCGHTVCCESCAAQLQSCPVCRSRVEHVQHVYLPTHTSLLNLTVI
Turning to B1, the “degradation in the cotransfection assay” value with EGFR receptor is “Several other members, including LRP-1, LRP-1b and the EGFR receptor are not”; in the series with LRP-1 it was “Several other members, including LRP-1, LRP-1b and the EGFR receptor are not”; with LRP-1b, “Several other members, including LRP-1, LRP-1b and the EGFR receptor are not”; in the series with VLDLR, “the VLDLR and apoER2, are both capable of being degraded by Idol in our cotransfection assay”; with apoER2 it was “the VLDLR and apoER2, are both capable of being degraded by Idol in our cotransfection assay”.
